In patent publication US20250171379A1 (Janssen / Centocor, published 2025):

Assays:
[1] = molecular target: T1, human prostate-specific membrane antigen (PSMA) (human, UniProt Q04609 1-750); experiment: flow cytometry on C4-2B cells (PSMA+), AlexaFluor647 anti-human IgG secondary, MFI curve fit; parental in the MTG series
T1 construct: whole, on cells; also called PSMA+ C4-2B cells
Protocol: (§1) Cell binding of azide-modified antibodies, DOTA-DBCO-azide modified antibodies, and DFO-DBCO-azide modified antibodies was compared to the parental mAbs for the conjugates described in Table 1. Cell lines expressing the mAb target were treated with antibody or conjugate in a range of a concentrations, and binding was measured by flow cytometry. […] Anti-PSMA mAb was evaluated for binding to PSMA+C4-2b cells.
(§2) Flow Cytometry: Cells were detached from flask using enzyme free cell dissociation buffer (Gibco, Waltham, MA) and strained through a 40 μm filter (Falcon). 5×10⁴ cells were seeded per well in a 96-well u-bottom plate. Cells were incubated with conjugated antibody or parental antibody diluted in BSA stain buffer (BD Bioscience, San Jose, CA) for 1 hr at 4° C. Cells were washed twice with stain buffer. […] Cells were washed twice with stain buffer then resuspended in a final volume of 25 μL/well in stain buffer and read on the iQue® Screener flow cytometer (Intellicyt®). […] Live cells were determined by excluding events with high nucleic acid stain. Mean fluorescence intensity (MFI) was determined on live cells and graphed in GraphPad® Prism 7 (GraphPad® Software) as log of antibody concentration vs. MFI. A non-linear regression curve fit was added to data and EC₅₀ values were calculated.

[2] = molecular target: T1, human prostate-specific membrane …; experiment: flow cytometry on C4-2B cells (PSMA+), AlexaFluor647 anti-human IgG secondary, MFI curve fit; parental in the glycan series
Protocol: as §1, §2

[3] = molecular target: T1, human prostate-specific membrane …; experiment: flow cytometry on C4-2B cells (PSMA+), AlexaFluor647 anti-human IgG secondary, MFI curve fit; parental in the random azide series
Protocol: as §1, §2

[4] = molecular target: T1, human prostate-specific membrane …; experiment: flow cytometry on C4-2B cells (PSMA+), AlexaFluor647 anti-human IgG secondary, MFI curve fit
Protocol: as §1
Flow Cytometry: Cells were detached from flask using enzyme free cell dissociation buffer (Gibco, Waltham, MA) and strained through a 40 μm filter (Falcon). 5×10⁴ cells were seeded per well in a 96-well u-bottom plate. Cells were incubated with conjugated antibody or parental antibody diluted in BSA stain buffer (BD Bioscience, San Jose, CA) for 1 hr at 4° C. Cells were washed twice with stain buffer. Cells were then incubated in the dark for 30 min at 4° C. with AlexaFluor647 tagged anti-human IgG secondary antibody (Jackson ImmunoResearch Laboratories). Secondary antibodies were diluted 1:200 in stain buffer containing 3% donkey serum (Rockland Immunochemicals). For the last 10 minutes of the incubation SYTOX® Green Nucleic Acid Stain (ThermoFisher) was added to cells at a final concentration of 30 nM. Cells were washed twice with stain buffer then resuspended in a final volume of 25 μL/well in stain buffer and read on the iQue® Screener flow cytometer (Intellicyt®). ForeCyt® software was used to analyze data. Live cells were determined by excluding events with high nucleic acid stain. Mean fluorescence intensity (MFI) was determined on live cells and graphed in GraphPad® Prism 7 (GraphPad® Software) as log of antibody concentration vs. MFI. A non-linear regression curve fit was added to data and EC₅₀ values were calculated.

T1 sequence (Q04609 whole entry): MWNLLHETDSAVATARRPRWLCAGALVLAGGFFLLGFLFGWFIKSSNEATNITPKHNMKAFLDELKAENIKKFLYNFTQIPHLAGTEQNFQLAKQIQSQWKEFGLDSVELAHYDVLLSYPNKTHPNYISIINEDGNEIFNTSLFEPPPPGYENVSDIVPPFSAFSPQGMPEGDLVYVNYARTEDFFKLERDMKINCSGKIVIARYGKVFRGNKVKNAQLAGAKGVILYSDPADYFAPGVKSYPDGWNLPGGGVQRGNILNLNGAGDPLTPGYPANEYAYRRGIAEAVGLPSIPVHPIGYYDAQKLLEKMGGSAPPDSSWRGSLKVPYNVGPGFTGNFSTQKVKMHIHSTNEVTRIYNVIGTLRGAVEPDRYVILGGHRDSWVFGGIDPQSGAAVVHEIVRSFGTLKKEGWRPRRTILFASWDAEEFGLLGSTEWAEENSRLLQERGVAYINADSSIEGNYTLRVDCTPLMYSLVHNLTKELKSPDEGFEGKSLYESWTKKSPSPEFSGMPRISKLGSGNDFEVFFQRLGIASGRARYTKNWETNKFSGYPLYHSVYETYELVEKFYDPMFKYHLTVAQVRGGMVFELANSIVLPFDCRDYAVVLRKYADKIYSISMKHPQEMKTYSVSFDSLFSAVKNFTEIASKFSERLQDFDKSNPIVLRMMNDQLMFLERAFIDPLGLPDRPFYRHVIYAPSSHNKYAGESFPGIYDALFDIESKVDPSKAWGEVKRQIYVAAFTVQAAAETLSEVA

B1: anti-PSMA mAb PSMB127 (antibody, human IgG4 S228P, kappa, F234A L235A, V domains shown)
VH: EVQLLESGGGLVQPGGSLRLSCAASGFTFKSDAMHWVRQAPGKGLEWVSEISGSGGYTNYADSVKGRFTISRDNSKNTLYLQMNSLRAEDTAVYYCARDSYDSSLYVGDYFDYWGQGTLVTVSS
VL: EIVLTQSPATLSLSPGERATLSCRASQSVSSYLAWYQQKPGQAPRLLIYDASNRATGIPARFSGSGSGTDFTLTISSLEPEDFAVYYCQQRSNWPLTFGQGTKVEIKR
notes: Parental, unmodified human IgG4 antibody
Work on B1 yielded an EC50 [1] of 4.1 nM, an EC50 [2] of 0.7 nM and an EC50 [3] of 5.5 nM.

B2: anti-PSMA mAb-DOTA (random azide clicked with DOTA-GA-DBCO) (antibody, human IgG4 S228P, kappa, F234A L235A, V domains shown)
VH: EVQLLESGGGLVQPGGSLRLSCAASGFTFKSDAMHWVRQAPGKGLEWVSEISGSGGYTNYADSVKGRFTISRDNSKNTLYLQMNSLRAEDTAVYYCARDSYDSSLYVGDYFDYWGQGTLVTVSS
VL: EIVLTQSPATLSLSPGERATLSCRASQSVSSYLAWYQQKPGQAPRLLIYDASNRATGIPARFSGSGSGTDFTLTISSLEPEDFAVYYCQQRSNWPLTFGQGTKVEIKR
modifications: random NHS-PEG4-azide on amines, clicked with unchelated DOTA-GA-DBCO, CAR 2.4
notes: Human IgG4; also called anti-PSMA mAb (random azide) mAb-DOTA
B2 showed an EC50 [4] of 5.4 nM.

B3: anti-PSMA mAb-DOTA (site specific glycan azide clicked with DOTA-GA-DBCO) (antibody, human IgG4 S228P, kappa, F234A L235A, V domains shown)
VH: EVQLLESGGGLVQPGGSLRLSCAASGFTFKSDAMHWVRQAPGKGLEWVSEISGSGGYTNYADSVKGRFTISRDNSKNTLYLQMNSLRAEDTAVYYCARDSYDSSLYVGDYFDYWGQGTLVTVSS
VL: EIVLTQSPATLSLSPGERATLSCRASQSVSSYLAWYQQKPGQAPRLLIYDASNRATGIPARFSGSGSGTDFTLTISSLEPEDFAVYYCQQRSNWPLTFGQGTKVEIKR
modifications: Fc glycan trimmed to the innermost GlcNAc, GalNAz azido sugar added, clicked with unchelated DOTA-GA-DBCO; CAR 2
notes: Human IgG4; also called anti-PSMA mAb (glycan) mAb-DOTA
With B3 the EC50 [4] was 0.7 nM.

B4: anti-PSMA mAb, deglycosylated (MTG samples) (antibody, human IgG4 S228P, kappa, F234A L235A, V domains shown)
VH: EVQLLESGGGLVQPGGSLRLSCAASGFTFKSDAMHWVRQAPGKGLEWVSEISGSGGYTNYADSVKGRFTISRDNSKNTLYLQMNSLRAEDTAVYYCARDSYDSSLYVGDYFDYWGQGTLVTVSS
VL: EIVLTQSPATLSLSPGERATLSCRASQSVSSYLAWYQQKPGQAPRLLIYDASNRATGIPARFSGSGSGTDFTLTISSLEPEDFAVYYCQQRSNWPLTFGQGTKVEIKR
modifications: deglycosylated with Rapid PNGase F (all N-glycans released)
notes: Human IgG4; also called anti-PSMA mAb (MTG) Deglycosylated
In the case of B4, the EC50 [4] is reported as 3.4 nM.

B5: anti-PSMA mAb-azide (random azide) (antibody, human IgG4 S228P, kappa, F234A L235A, V domains shown)
VH: EVQLLESGGGLVQPGGSLRLSCAASGFTFKSDAMHWVRQAPGKGLEWVSEISGSGGYTNYADSVKGRFTISRDNSKNTLYLQMNSLRAEDTAVYYCARDSYDSSLYVGDYFDYWGQGTLVTVSS
VL: EIVLTQSPATLSLSPGERATLSCRASQSVSSYLAWYQQKPGQAPRLLIYDASNRATGIPARFSGSGSGTDFTLTISSLEPEDFAVYYCQQRSNWPLTFGQGTKVEIKR
modifications: random conjugation of NHS-PEG4-azide to amines of the antibody, CAR 2.4
notes: Human IgG4; sites of modification random, not located; also called anti-PSMA mAb (random azide) mAb-azide
With B5 the EC50 [4] was 4.7 nM.

B6: anti-PSMA mAb-azide (site specific glycan) (antibody, human IgG4 S228P, kappa, F234A L235A, V domains shown)
VH: EVQLLESGGGLVQPGGSLRLSCAASGFTFKSDAMHWVRQAPGKGLEWVSEISGSGGYTNYADSVKGRFTISRDNSKNTLYLQMNSLRAEDTAVYYCARDSYDSSLYVGDYFDYWGQGTLVTVSS
VL: EIVLTQSPATLSLSPGERATLSCRASQSVSSYLAWYQQKPGQAPRLLIYDASNRATGIPARFSGSGSGTDFTLTISSLEPEDFAVYYCQQRSNWPLTFGQGTKVEIKR
modifications: Fc glycan trimmed with GlycINATOR to the innermost GlcNAc, GalNAz azido sugar added with GalT; CAR exactly 2
notes: Human IgG4; also called anti-PSMA mAb (glycan) mAb-azide
In the case of B6, the EC50 [4] is reported as 0.5 nM.

B7: anti-PSMA mAb-azide (site specific MTG) (antibody, human IgG4 S228P, kappa, F234A L235A, V domains shown)
VH: EVQLLESGGGLVQPGGSLRLSCAASGFTFKSDAMHWVRQAPGKGLEWVSEISGSGGYTNYADSVKGRFTISRDNSKNTLYLQMNSLRAEDTAVYYCARDSYDSSLYVGDYFDYWGQGTLVTVSS
VL: EIVLTQSPATLSLSPGERATLSCRASQSVSSYLAWYQQKPGQAPRLLIYDASNRATGIPARFSGSGSGTDFTLTISSLEPEDFAVYYCQQRSNWPLTFGQGTKVEIKR
modifications: deglycosylated with PNGase F; 3-azido propylamine at Gln295 by microbial transglutaminase; CAR 2
notes: Human IgG4; also called anti-PSMA mAb (MTG) mAb-azide
B7 was tested, and the EC50 [4] was 5 nM.

B8: anti-PSMA mAb-DFO (random azide clicked with DFO-DBCO) (antibody, human IgG4 S228P, kappa, F234A L235A, V domains shown)
VH: EVQLLESGGGLVQPGGSLRLSCAASGFTFKSDAMHWVRQAPGKGLEWVSEISGSGGYTNYADSVKGRFTISRDNSKNTLYLQMNSLRAEDTAVYYCARDSYDSSLYVGDYFDYWGQGTLVTVSS
VL: EIVLTQSPATLSLSPGERATLSCRASQSVSSYLAWYQQKPGQAPRLLIYDASNRATGIPARFSGSGSGTDFTLTISSLEPEDFAVYYCQQRSNWPLTFGQGTKVEIKR
modifications: random NHS-PEG4-azide on amines, clicked with unchelated DFO-DBCO, CAR 2.4
notes: Human IgG4; also called anti-PSMA mAb (random azide) mAb-DFO
Work on B8 yielded an EC50 [4] of 4.6 nM.

B9: anti-PSMA mAb-DFO (site specific MTG azide clicked with DFO-DBCO) (antibody, human IgG4 S228P, kappa, F234A L235A, V domains shown)
VH: EVQLLESGGGLVQPGGSLRLSCAASGFTFKSDAMHWVRQAPGKGLEWVSEISGSGGYTNYADSVKGRFTISRDNSKNTLYLQMNSLRAEDTAVYYCARDSYDSSLYVGDYFDYWGQGTLVTVSS
VL: EIVLTQSPATLSLSPGERATLSCRASQSVSSYLAWYQQKPGQAPRLLIYDASNRATGIPARFSGSGSGTDFTLTISSLEPEDFAVYYCQQRSNWPLTFGQGTKVEIKR
modifications: deglycosylated with PNGase F; 3-azido propylamine at Gln295 by microbial transglutaminase, clicked with unchelated DFO-DBCO; CAR 2
notes: Human IgG4; also called anti-PSMA mAb (MTG) mAb-DFO
For B9, the EC50 [4] was 4.5 nM.

B10: anti-PSMA mAb-DOTA (site specific MTG azide clicked with DOTA-GA-DBCO) (antibody, human IgG4 S228P, kappa, F234A L235A, V domains shown)
VH: EVQLLESGGGLVQPGGSLRLSCAASGFTFKSDAMHWVRQAPGKGLEWVSEISGSGGYTNYADSVKGRFTISRDNSKNTLYLQMNSLRAEDTAVYYCARDSYDSSLYVGDYFDYWGQGTLVTVSS
VL: EIVLTQSPATLSLSPGERATLSCRASQSVSSYLAWYQQKPGQAPRLLIYDASNRATGIPARFSGSGSGTDFTLTISSLEPEDFAVYYCQQRSNWPLTFGQGTKVEIKR
modifications: deglycosylated with PNGase F; 3-azido propylamine at Gln295 by microbial transglutaminase, clicked with unchelated DOTA-GA-DBCO; CAR 2
notes: Human IgG4; also called anti-PSMA mAb (MTG) mAb-DOTA
For B10, the EC50 [4] was 6.7 nM.
